# Values of other authors as cited in PMC3159772.
# pKd: −log10 of the molar value.
# What was measured:
# NTS1 (Homo sapiens) = NTS1 (Homo sapiens) (UniProt P30989)
# NTS2 (Homo sapiens) = NTS2 (Homo sapiens) (UniProt O95665)
# Chain of UniProt O95665 (O95665 whole entry): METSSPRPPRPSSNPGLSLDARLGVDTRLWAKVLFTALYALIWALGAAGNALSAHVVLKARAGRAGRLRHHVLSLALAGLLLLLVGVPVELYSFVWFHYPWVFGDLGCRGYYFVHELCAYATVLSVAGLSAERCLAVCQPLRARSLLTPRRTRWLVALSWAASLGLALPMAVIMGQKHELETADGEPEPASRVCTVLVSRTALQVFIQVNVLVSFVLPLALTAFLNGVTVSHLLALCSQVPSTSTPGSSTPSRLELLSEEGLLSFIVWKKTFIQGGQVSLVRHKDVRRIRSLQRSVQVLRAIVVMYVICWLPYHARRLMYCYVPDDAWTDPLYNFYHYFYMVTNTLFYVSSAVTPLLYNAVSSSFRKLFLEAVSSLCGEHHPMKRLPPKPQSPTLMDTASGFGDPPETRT
# Chain of UniProt P30989 (P30989 whole entry): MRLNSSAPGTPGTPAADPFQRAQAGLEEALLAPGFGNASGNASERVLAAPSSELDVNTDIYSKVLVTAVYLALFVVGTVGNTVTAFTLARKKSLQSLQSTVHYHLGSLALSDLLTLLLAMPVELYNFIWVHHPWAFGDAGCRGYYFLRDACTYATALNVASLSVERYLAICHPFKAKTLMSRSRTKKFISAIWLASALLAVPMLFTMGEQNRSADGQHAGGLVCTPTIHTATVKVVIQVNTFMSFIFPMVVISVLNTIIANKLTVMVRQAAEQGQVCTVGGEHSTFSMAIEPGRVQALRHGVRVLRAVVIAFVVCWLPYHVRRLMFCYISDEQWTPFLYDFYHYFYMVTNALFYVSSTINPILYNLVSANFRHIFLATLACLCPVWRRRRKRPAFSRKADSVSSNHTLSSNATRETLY
substance,measurement,setting,value
NT69L (from UniProt P30990),pKd,NTS1 (Homo sapiens),8.51
same,pKd,NTS2 (Homo sapiens),8.68
